Changes are numbered by the printed parent chain.
T1: PirB (Vibrio parahaemolyticus)
T1 construct: also called JHE-like toxin PirB-like
T1 chain: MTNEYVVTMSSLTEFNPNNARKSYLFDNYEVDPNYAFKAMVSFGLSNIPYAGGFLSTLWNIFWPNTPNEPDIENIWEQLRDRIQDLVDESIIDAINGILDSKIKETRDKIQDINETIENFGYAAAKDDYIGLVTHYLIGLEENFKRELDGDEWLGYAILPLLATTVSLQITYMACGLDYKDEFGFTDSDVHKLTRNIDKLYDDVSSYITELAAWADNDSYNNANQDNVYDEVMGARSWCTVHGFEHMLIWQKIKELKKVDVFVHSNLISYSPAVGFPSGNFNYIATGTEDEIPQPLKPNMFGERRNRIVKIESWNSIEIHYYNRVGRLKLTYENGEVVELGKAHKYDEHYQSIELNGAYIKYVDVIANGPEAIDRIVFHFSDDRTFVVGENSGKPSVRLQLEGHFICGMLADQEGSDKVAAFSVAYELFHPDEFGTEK

B1: NBX09008 (VHH)
VHH: QVQLQESGGGLVQAGGSLRLSCSASGRTFSVRAMGWFRQAPGKERESVAAIHQNTRTTLYADSVKGRFAISRDGTKNTVYLQMNSLKPEDTAVYYCAASDDYGLQIKEVAYKYWGQGTQVTVAS
notes: on phage in the phage ELISA
B2: NBX09003 (VHH)
VHH: QVQLQESGGGLVQPGGSLRLSCTASGSIFSLLNMGWYRQAPGKQRELVASITSRSYTNYADSVKGRFTISRDNTKNMVYLQMNSLKPEDTAVYYCNLNPADWGRLRNWGQGTQVTVSS
notes: on phage in the phage ELISA
B3: NBX0640 (VHH)
VHH: QVQLQESGGGLVQPGGSLRLSCAASGSIFSGNVMGWYRQVPGKQRDLVATITGGGITRYADSVKGRFTISRDNAKNTVYLQMNSLKPEDTAVYYCHYRRIMQQYWGQGTQVTVSS
notes: on phage in the phage ELISA
B4: NBX0644 (VHH)
VHH: B3 VHH with P14A, T77K, S84G, Y94F, H96F
notes: on phage in the phage ELISA
B5: NBX0643 (VHH)
VHH: B3 VHH with P14A, A23E, I51M, I56V, G65A, A91G
notes: on phage in the phage ELISA
B6: NBX0638 (VHH)
VHH: B3 VHH with P14A, H96N, Q107K, Q110L
notes: on phage in the phage ELISA
B7: NBX09002 (VHH)
VHH: QVQLQESGGGLVQAGESLRLSCADSGRTSSTYDMAWFRQAPGKEREFVAAISRDGGRLSYADSVKGRFTISRDNAKNTLSLQMNSLRPEDTAVYYCAAFSIRGGLRPSYKYWGQGTQVTVSS
notes: on phage in the phage ELISA
B8: NBX0851 (VHH)
VHH: QVQLQQSGGGLVQPGGSLRLSCAASGRMFSGYVMGWYRQAPGKQRELVATITNGGLTNYADSVKGRFTISRDNAKNTVYLQMNSLKPDDTAVYYCNARRLWDIYWGQGTQVTVSS
notes: on phage in the phage ELISA
B9: NBX0857 (VHH)
VHH: B8 VHH with M28I, Y32H, A60G, I103T
notes: on phage in the phage ELISA
B10: NBX0827 (VHH)
VHH: QVQLQESGGGLVQAGGSLRLSCAASGSISSSFVMGWYRQAPGKQRELVATITSGGSTIYADSVKGRFTVSRDNAKNTVYLQMNSLKSEDTAVYYCHARRLWNTYWGQGTQVTVSS
notes: on phage in the phage ELISA
B11: NBX0854 (VHH)
VHH: QVQLQQSGGGLVQAGGSLRISCAASGSISSAYVMGWYRQAPGTQRELVATITSGGTTNYADSVKGRFTVSRDNAKNTVYLQMNSLKPDDTAVYYCNARRLWTTYWGQGTQVTVSS
notes: on phage in the phage ELISA
B12: NBX0831 (VHH)
VHH: B10 VHH with A23S, S27D, I28A, S29F, S31R, F32Y
notes: on phage in the phage ELISA
B13: NBX09006 (VHH)
VHH: QVQLQESGGGLVQPGGSLRLSCAASGSISGSYVMGWYRQAPGKQRELVATITSGGLTRYADSVKGRWTISRDNAKNTVYLQMNNLKLEDTAVYYCSARRIATTYWGQGTQVTVSS
notes: on phage in the phage ELISA
B14: NBX0404 (VHH)
VHH: QVQLQESGGGLVQAGDSLRLSCATSGRTFSRYTMGWFRQTPGKEREFVAAISWSGTYYTDSVKGRFTISVDNAKNTVYLQMNSLKPEDTAVYYCASGSRRLYYSSDIDYWGQGTQVTVSS
notes: on phage in the phage ELISA
B15: NBX0405 (VHH)
VHH: B14 VHH with V70R, A95V, S96V, D108N
notes: on phage in the phage ELISA
B16: NBX0862 (VHH)
VHH: QVQLQESGGGLVQPGGSLRLSCSASGNRFSSSYVLGWYRQAPGKQRELVATVTSGGLTHYGDSVKGRFTISRDNAKNTVYLQMNSLKPEDTAVYYCNARILLTNYWGQGTQVTVSS
notes: on phage in the phage ELISA
B17: NBX0843 (VHH)
VHH: B16 VHH with L35M, W37Y, S54T, H59N, G61A
notes: on phage in the phage ELISA
B18: NBX0859 (VHH)
VHH: QVQLQESGGGLVQPGGSLRLSCSASGNRFSSSYVMGWYRQGPGKQRELVATVTSGGMTHYGDSVKGRFTISRDNAKNTVYLHMNSLKPEDTGVYYCFARRLWDIHWGQGTQVTVSS
notes: on phage in the phage ELISA
B19: NBX0835 (VHH)
VHH: B16 VHH with L35M, Y60F, G61K, V114I
notes: on phage in the phage ELISA
B20: NBX0864 (VHH)
VHH: QVQLQESGGGLVQPGGSLRLSCAASGIISSAYVMGWYRQAPGKQRELVATITSGGTTRYADSVKGRITISRDNAKNTVLLQMNSLKPEDTAVYYCNARILLTNYWGQGTQVTVSS
notes: on phage in the phage ELISA
B21: NBX0863 (VHH)
VHH: QVQLQQSGGGLAQAGGSLRLSCAASGRTFNWYTMAWFRQAPGKEREFVAAIRLGSTVYGDSVKARFTISRDNAKSTVSLQMNSLKPEDTALYYCAVGITGDGTIQGGPYQYWGQGTQVTVSS
notes: on phage in the phage ELISA
B22: NBX09005 (VHH)
VHH: QVQLQESGGGLVQAGGSLRLSCAASGLTFGSYAMGWFRQAPGKEREFVAAIMRYSSRTYYTDSVKGRFTISRDNAKNTVNLQMNNLEPEDTAIYYCAAAKRLSIVTLPRQYEFWGQGTQVTVSS
notes: on phage in the phage ELISA
B23: NBX09010 (VHH)
VHH: B22 VHH with E6Q, I104R, Q110E
notes: on phage in the phage ELISA
B24: NBX09009 (VHH)
VHH: B22 VHH with A50T, T91A, T106A
notes: on phage in the phage ELISA
B25: NBX09007 (VHH)
VHH: QVQLQESGGGLVQPGGSLRLSCAASGSISSSYVMGWYRQAPGKQRDLVATITNAGNIHYGDSVKGRFTISRDNAKNTVSLQMNSLKPEDTAVYYCNARALWRAYWGQGTQVTVSS
notes: on phage in the phage ELISA
B26: NBX09001 (VHH)
VHH: QVQLQESGGGSVQPGGSLRLSCAASGSALSSNVLGWYRQAPGKQRELVATISSGGLTNYADSVKGRFTISRDNAKNTVYLQMNSLKPEDTAVYYCQSRRLFTVYWGQGTQVTVSS
notes: on phage in the phage ELISA
B27: NBX0850 (VHH)
VHH: QVQLQESGGGLVQAGGSLRLSCAASGSISASYVMGWYRQTPGKQRELVATTTSGGTTRYADSVRGRFTISRDNARNTVYLQMNSLKPDDTAVYYCNARRLFLNYWGQGTQVTVSS
notes: on phage in the phage ELISA
B28: NBX0614 (VHH)
VHH: QVQLQQSGGGLVQAGGSLRLSCAASGSSFRSNAIGWYRQFPGKSRELIAVITRSGSTQYADSVKGRFTASRDNAKNMIYLQMNNLKLEDTAVYYCHDETMKLISVKNDYWGQGSQVTVSS
notes: on phage in the phage ELISA
B29: NBX0627 (VHH)
VHH: B28 VHH with F40S, N84S, L87P, S104T, V105G, S114T
notes: on phage in the phage ELISA
B30: NBX0865 (VHH)
VHH: QVQLQESGGGLVQAGGSLRLSCADSGRVFSTYVMGWYRQVPGKQRELVATITPGGLINYGDAVKGRFTISRDNAKNTVYLQMNSLKPADTAVYYCNARRLFAINWGGGTQVTVSS
notes: on phage in the phage ELISA
B31: NBX0855 (VHH)
VHH: QVQLQESGGGLVQPGESLRLSCAASTSGFSSYVMAWYRQAPGKQRELVASMTTGGLTNYADSVKGRFTISRDNAKNTVYLQMNSLKPEDTAAYYCNARRLWNAYWGQGTQVTVSS
notes: on phage in the phage ELISA
B32: NBX09011 (VHH)
VHH: B31 VHH
notes: on phage in the phage ELISA
B33: NBX0858 (VHH)
VHH: QVQLQESGGGLVQAGGSLRLSCAASRRDFTTTTMAWYRQAPGKKRETVATVNTGGLTWYADFVKGRFTISRDDAVNTLLLQMDSLKPEDTAVYYCNAVLVRARGMWGQGTQVTVSS
notes: on phage in the phage ELISA
B34: NBX0626 (VHH)
VHH: QVQLQQSGGGLVQAGGSLRLACAVSETTLATNAMAWYRQAQGKRREWVATISSVSSGGITNYSGSVKGRFTISRDNAKNTVFLQMNSLQPEDTAVYYCNGVRRGRSYWGQGTQVTVSS
notes: on phage in the phage ELISA
B35: NBX0852 (VHH)
VHH: QVQLQESGGGLVQAGGSLRLSCEASGRTFSSYRVGWFRQAPGKGREFVAAISATGGTTYYGDSVKGRFTISRDNAENTVSLQMNSLEPEDTAVYYCAATKGIVNYRVAGTYDAWGQGTQVTVSS
notes: on phage in the phage ELISA
B36: NBX0861 (VHH)
VHH: QVQLQESGGGLVQAGGSLRLSCVASGSISNSHVMGWYRQAPGKERELVATLTSGGLTHFGDSVKGRFTISRDNAKNTIYLQMNSLKVEDTAVYYCNARRLLTSMWGQGTQVTVSP
notes: on phage in the phage ELISA

Biological target: T1, PirB
Test: phage ELISA, antigen-coated wells

Binder | binding above PBS-coated wells [%]
B1 | ≥ 50
B2 | ≥ 50
B3 | ≥ 50
B4 | ≥ 50
B5 | ≥ 50
B6 | ≥ 50
B7 | ≥ 50
B8 | ≥ 50
B9 | ≥ 50
B10 | ≥ 50
B11 | ≥ 50
B12 | ≥ 50
B13 | ≥ 50
B14 | ≥ 50
B15 | ≥ 50
B16 | ≥ 50
B17 | ≥ 50
B18 | ≥ 50

Binder | binding above PBS-coated wells [%]
B19 | ≥ 50
B20 | ≥ 50
B21 | ≥ 50
B22 | ≥ 50
B23 | ≥ 50
B24 | ≥ 50
B25 | ≥ 50
B26 | ≥ 50
B27 | ≥ 50
B28 | ≥ 50
B29 | ≥ 50
B30 | ≥ 50
B31 | ≥ 50
B32 | ≥ 50
B33 | ≥ 50
B34 | ≥ 50
B35 | ≥ 50
B36 | ≥ 50

From US20220119506A1 (NOVOBIND LIVESTOCK THERAPEUTICS, published 2022)
